Results: patent US20240190989A1 (BEIGENE SWITZERLAND, published 2024)
Residue numbers refer to the chain shown, from its start. “And” between values parts separate entries of the source, which are not always exact repeats. Equal entries are not always repeated.

Assays:
[1] = target: T1, soluble human CEA, amino acids 1-687 of huCEA with C-terminal 6xHis tag (human, UniProt P06731 35-687); experiment: SPR, Human CEA
T1 construct: also called sCEA; soluble huCEA
T1 sequence: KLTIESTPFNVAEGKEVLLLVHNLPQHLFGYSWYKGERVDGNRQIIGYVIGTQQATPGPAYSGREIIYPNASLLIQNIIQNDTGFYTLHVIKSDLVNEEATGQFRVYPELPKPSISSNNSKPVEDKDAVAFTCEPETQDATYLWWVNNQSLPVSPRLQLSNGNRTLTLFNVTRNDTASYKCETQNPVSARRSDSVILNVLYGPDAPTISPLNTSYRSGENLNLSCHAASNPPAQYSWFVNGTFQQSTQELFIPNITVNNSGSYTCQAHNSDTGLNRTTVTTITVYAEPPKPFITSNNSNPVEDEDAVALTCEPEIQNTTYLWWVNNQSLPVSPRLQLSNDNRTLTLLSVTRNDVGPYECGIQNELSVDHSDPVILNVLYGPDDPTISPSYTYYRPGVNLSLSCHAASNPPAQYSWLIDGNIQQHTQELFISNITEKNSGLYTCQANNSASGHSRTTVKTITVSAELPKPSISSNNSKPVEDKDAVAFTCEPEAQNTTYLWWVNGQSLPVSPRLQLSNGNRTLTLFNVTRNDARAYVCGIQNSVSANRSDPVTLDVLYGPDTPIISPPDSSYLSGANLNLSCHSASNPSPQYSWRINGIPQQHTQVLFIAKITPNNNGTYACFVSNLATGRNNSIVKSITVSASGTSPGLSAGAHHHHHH

[2] = target: T2, human CD137 ECD-mIgG2a (human); experiment: antigen ELISA on huCD137-mIgG2a [panel B]
T2 construct: ECD 24-183 of huCD137 fused to mouse IgG2a Fc; also called huCD137-mIgG2a; huCD137

[3] = target: T3, full-length human CEA on cells (MKN45, LOVO, L929/huCEA, CT26/CEA, CT26-OS8-CEA) (human, UniProt P06731 35-685); experiment: FACS on CT26-OS8-CEA cells
T3 construct: also called CEACAM5; native CEA
T3 sequence: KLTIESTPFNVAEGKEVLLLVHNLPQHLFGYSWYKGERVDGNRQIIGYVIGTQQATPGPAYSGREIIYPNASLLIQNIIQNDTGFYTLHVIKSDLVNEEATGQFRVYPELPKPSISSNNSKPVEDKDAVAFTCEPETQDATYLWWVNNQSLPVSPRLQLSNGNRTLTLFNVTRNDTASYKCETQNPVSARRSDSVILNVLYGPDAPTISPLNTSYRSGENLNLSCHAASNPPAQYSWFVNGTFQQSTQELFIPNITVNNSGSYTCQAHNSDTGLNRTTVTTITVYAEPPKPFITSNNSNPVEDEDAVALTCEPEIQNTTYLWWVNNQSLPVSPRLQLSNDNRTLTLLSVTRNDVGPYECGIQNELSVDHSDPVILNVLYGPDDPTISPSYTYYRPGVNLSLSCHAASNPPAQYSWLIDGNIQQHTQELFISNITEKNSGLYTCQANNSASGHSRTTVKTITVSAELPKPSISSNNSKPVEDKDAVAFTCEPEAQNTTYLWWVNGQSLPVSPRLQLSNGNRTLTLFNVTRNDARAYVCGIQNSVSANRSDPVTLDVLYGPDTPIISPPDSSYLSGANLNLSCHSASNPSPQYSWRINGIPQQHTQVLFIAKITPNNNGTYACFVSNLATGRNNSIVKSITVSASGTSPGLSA

[4] = target: T4, full-length human CD137 on cells (Hut78/huCD137, HEK293 transfectants, JK-NFKB-CD137) (human, UniProt Q07011 24-255); experiment: FACS on HuT78/CD137 cells
T4 construct: also called native CD137; TNFRSF9

[5] = target: FcγRIIIB (UniProt O75015 17-200, limits assumed); experiment: ELISA-based FcγR binding, luminescence read-out (RLU)
[6] = target: FcγRIIIAF158 (UniProt P08637 17-208); experiment: as above
[7] = target: FcγRIIIAV158 (UniProt P08637 17-208); experiment: as above
[8] = target: T5, FcγRIIAH131 (UniProt P12318 34-218); experiment: as above
T5 sequence (looked up): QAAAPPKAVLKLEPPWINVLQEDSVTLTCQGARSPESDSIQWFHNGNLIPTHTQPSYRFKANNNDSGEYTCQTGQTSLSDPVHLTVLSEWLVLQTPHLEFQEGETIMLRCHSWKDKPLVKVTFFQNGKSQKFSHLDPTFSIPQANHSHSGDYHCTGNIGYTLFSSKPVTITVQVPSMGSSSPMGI

[9] = target: T6, FcγRIIB (UniProt P31994 43-217, limits assumed); experiment: as above
T6 sequence (looked up): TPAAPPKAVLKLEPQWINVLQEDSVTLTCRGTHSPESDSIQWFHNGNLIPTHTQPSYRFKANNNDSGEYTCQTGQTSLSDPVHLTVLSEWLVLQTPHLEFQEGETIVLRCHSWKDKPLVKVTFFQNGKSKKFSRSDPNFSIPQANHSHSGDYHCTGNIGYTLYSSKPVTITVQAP

[10] = target: T7, FcγRIIAR131 (UniProt P12318 34-218); experiment: as above
T7 sequence (looked up): T5 sequence (looked up) with H134R

[11] = target: FcγRI (UniProt P12314 16-288, limits assumed); experiment: as above
[12] = target: T2, human CD137 ECD-mIgG2a; experiment: SPR, Human CD137

T4 sequence (Q07011 24-255 limits assumed): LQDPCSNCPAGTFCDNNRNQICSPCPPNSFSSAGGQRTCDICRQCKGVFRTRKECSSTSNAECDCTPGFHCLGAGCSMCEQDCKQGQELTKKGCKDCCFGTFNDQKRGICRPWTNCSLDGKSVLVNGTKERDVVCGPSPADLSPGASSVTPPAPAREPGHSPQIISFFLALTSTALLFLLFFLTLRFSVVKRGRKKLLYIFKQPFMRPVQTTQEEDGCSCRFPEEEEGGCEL
Chain of FcγRI (P12314 16-288 limits assumed): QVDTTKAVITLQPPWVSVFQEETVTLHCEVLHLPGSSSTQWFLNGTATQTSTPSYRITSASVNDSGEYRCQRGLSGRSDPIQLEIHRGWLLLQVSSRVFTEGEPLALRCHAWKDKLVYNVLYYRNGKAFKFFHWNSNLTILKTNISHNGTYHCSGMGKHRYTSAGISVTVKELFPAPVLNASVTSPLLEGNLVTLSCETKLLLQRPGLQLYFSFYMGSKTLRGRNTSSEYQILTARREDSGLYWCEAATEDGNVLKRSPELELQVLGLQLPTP
Chain of FcγRIIIB (O75015 17-200 limits assumed): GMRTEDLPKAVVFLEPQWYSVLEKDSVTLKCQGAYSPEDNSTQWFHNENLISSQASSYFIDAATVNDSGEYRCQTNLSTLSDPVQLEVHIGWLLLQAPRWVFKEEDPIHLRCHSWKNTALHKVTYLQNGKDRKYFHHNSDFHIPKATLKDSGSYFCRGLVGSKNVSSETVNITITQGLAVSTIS
Chain of FcγRIIIAV158 (P08637 17-208 F176V): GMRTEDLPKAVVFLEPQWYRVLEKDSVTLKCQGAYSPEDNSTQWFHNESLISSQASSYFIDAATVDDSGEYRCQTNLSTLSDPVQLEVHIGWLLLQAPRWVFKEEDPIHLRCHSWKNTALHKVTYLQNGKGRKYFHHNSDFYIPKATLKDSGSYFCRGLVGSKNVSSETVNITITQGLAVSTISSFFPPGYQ
Chain of FcγRIIIAF158 (P08637 17-208): as the sequence (P08637 17-208 F176V) above, with V160F counted along it

Kd [1]: 3 nM | koff [1]: 0.000295 s⁻¹ | kon [1]: 98500 M⁻¹ s⁻¹ | EC50 (read off the curve) [2]: ~0.08 µg/mL | EC50 [3]: 1.53 µg/mL and 8.75 nM | EC50 [4]: 2.26 µg/mL and 12.9 nM | binding result [5]: no binding (tested: not shown) | binding result [6]: no binding (tested: not shown) | binding result [7]: no binding (tested: not shown) | binding result [8]: no binding (tested: not shown) | binding result [9]: no binding (tested: not shown) | binding result [10]: no binding (tested: not shown) | binding result [11]: no binding (tested: not shown) | Kd [12]: 36.2 nM | koff [12]: 0.00469 s⁻¹ | kon [12]: 130000 M⁻¹ s⁻¹
B1: BE-146 (CEAxCD137 multispecific antibody) (bispecific antibody, human IgG1, kappa)
heavy: QVQLVQSGAEVKKPGASVKVSCKASGYIFTSYYLHWVRQAPGQGLEWIGYINPQTGKTSYAQKFQGRVTMTRDTSTSTVYMELSSLRSEDTAVYYCAREYGNYNYPLDYWGQGTLVTVSSASTKGPSVFPLAPSSKSTSGGTAALGCLVKDYFPEPVTVSWNSGALTSGVHTFPAVLQSSGLYSLSSVVTVPSSSLGTQTYICNVNHKPSNTKVDKKVEPKSCDKTHTCPPCPAPPAAGPSVFLFPPKPKDTLMISRTPEVTCVVVDVSHEDPEVKFNWYVDGVEVHNAKTKPREEQYNSTYRVVSVLTVLHQDWLNGKEYKCKVSNKALAAPIEKTISKAKGQPREPQVYTLPPSREEMTKNQVSLTCLVKGFYPSDIAVEWESNGQPENNYKTTPPVLDSDGSFFLYSKLTVDKSRWQQGNVFSCSVMHEALHNHYTQKSLSLSPGKGGGGSEVQLLESGGGLVQPGGSLRLSCAASGFTVSAEDVGWVRQAPGKGLEWVSAILDKGGSTYYAESVKGRFTISRDNAKNTLYLQMSSLRAEDTAVYYCARIVYHAGGGVTFDTRGQGTQVTVSS
light: DIQMTQSPSSLSASVGDRVTITCRASENQYGYLAWYQQKPGKVPKLLIYNYKNLVEGVPSRFSGSGSGTDFTLTISSLQPEDVATYYCQHHLGTPYTFGQGTKVEIKRTVAAPSVFIFPPSDEQLKSGTASVVCLLNNFYPREAKVQWKVDNALQSGNSQESVTEQDSKDSTYSLSSTLTLSKADYEKHKVYACEVTHQGLSSPVTKSFNRGEC
notes: Module ratio 2:2, Fc null version of huIgG1; copies: 2 + 2
